# Measured values: paper PMC8891019, “TDP-43 represses cryptic exon inclusion in the FTD–ALS gene UNC13A”
# Assays:
# [1] = biological target: T1, TDP-43-MBP (full-length wild-type TDP-43) (UniProt Q13148 1-414); test: EMSA; Kd,app only in figure; much higher affinity than exon or repeat; EMSA: 1 nM RNA, 50 mM Tris-HCl pH 7.5, 100 mM KCl, 2 mM MgCl2, 100 mM beta-mercaptoethanol, 0.1 mg/ml BSA, 30 min, room temperature; TDP-43 0-4 (printed mM in Methods, 0-8 uM in legend); 6% native PAGE, Cy5 imaging; conditions: protein: recombinant; tags: MBP; Ni-NTA purified; label: 5' Cy3 on strand 1; 3' Cy5 on 18-mer; 18 bp duplex at 3' end of strand 1, 5' ssRNA overhang
# T1 sequence (Q13148 whole entry): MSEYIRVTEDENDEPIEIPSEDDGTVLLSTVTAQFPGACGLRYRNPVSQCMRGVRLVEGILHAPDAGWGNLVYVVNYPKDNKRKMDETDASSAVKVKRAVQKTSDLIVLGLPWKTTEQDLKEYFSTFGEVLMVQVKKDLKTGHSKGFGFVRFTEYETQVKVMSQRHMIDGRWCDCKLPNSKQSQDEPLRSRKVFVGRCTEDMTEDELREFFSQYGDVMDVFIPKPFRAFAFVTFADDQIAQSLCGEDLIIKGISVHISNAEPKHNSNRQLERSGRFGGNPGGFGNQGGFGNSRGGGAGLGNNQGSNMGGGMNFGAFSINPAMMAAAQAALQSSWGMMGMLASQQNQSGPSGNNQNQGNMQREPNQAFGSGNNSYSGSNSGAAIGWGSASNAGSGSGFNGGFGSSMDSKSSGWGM
# [2] = biological target: T1, TDP-43-MBP (full-length wild-type …); test: EMSA; Kd,app only in figure; much lower affinity than intron probe; EMSA: 1 nM RNA, 50 mM Tris-HCl pH 7.5, 100 mM KCl, 2 mM MgCl2, 100 mM beta-mercaptoethanol, 0.1 mg/ml BSA, 30 min, room temperature; TDP-43 0-4 (printed mM in Methods, 0-8 uM in legend); 6% native PAGE, Cy5 imaging; conditions: protein: recombinant, tags: MBP, Ni-NTA purified, label: 5' Cy3 on strand 1, 3' Cy5 on 18-mer
# [3] = biological target: T1, TDP-43-MBP (full-length wild-type …); test: EMSA; Kd,app only in figure; affinity similar to CE Ref; EMSA: 1 nM RNA, 50 mM Tris-HCl pH 7.5, 100 mM KCl, 2 mM MgCl2, 100 mM beta-mercaptoethanol, 0.1 mg/ml BSA, 30 min, room temperature; TDP-43 0-4 (printed mM in Methods, 0-8 uM in legend); 6% native PAGE, Cy5 imaging; conditions: protein: recombinant; tags: MBP; Ni-NTA purified; label: 5' Cy3 on strand 1; 3' Cy5 on 18-mer; 18 bp duplex at 3' end of strand 1, 5' ssRNA overhang 26 nt
binder,measurement,setting,value
"Intron Ref (U), rs12608932 (mixed, 5' biotin on 18-mer strand) RNA 1: AAUGGAUGGUUGGAUAAAUUGAUGGGUGGAUGGAUGCCUCGCUGCCGUCGCCA RNA 2: UGGCGACGGCAGCGAGGC",binding result,[1],binds
"CE Ref (G), rs12973192 (mixed, 5' biotin on 18-mer strand) RNA 1: AAGGAUGGAUGGAGAGAUGGGUGAGUGCCUCGCUGCCGUCGCCA RNA 2: UGGCGACGGCAGCGAGGC",binding result,"[2]; 18 bp duplex at 3' end of strand 1, 5' ssRNA overhang 26 nt",binds
"CE Risk (C), rs12973192 (mixed, 5' biotin on 18-mer strand) RNA 1: AAGCAUGGAUGGAGAGAUGGGUGAGUGCCUCGCUGCCGUCGCCA RNA 2: UGGCGACGGCAGCGAGGC",binding result,[3],binds
"Repeat Ref ((GATG)4), rs56041637 (mixed, 5' biotin on 18-mer strand) RNA 1: UGGAUGGAUGGAUGGAUGGAGCCUCGCUGCCGUCGCCA RNA 2: UGGCGACGGCAGCGAGGC",binding result,"[2]; 18 bp duplex at 3' end of strand 1, 5' ssRNA overhang 20 nt",binds
